According to the DeepSol protein solubility set:

Test: soluble on expression in E. coli; label from the status in PepcDB or PDB records

Sequence | soluble on expression in E. coli
MHHHHHHSSGVDLGTENLYFQSNAMKEELIERFTRYVKIDTQSNEDSHTVPTTPGQIEFGKLLVEELKEVGLTEVTMDDNGYVMATLPANTDKDVPVIGFLAHLDTATDFTGKNVKPQIHENFDGNAITLNEELNIVLTPEQFPELPSYKGHTIITTDGTTLLGADDKAGLTEIMVAMNYLIHNPQIKHGKIRVAFTPDEEIGRGPAHFDVEAFGASFAYMMDGGPLGGLEYESFNAAGAKLTFNGTNTHPGTAKNKMRNATKLAMEFNGHLPVEEAPEYTEGYEGFYHLLSLNGDVEQSKAYYIIRDFDRKNFEARKNTIENIVKQMQEKYGQDAVVLEMNDQYYNMLEKIEPVREIVDIAYEAMKSLNIEPNIHPIRGGTDGSQLSYMGLPTPNIFTGGENYHGKFEYVSVDVMEKAVQVIIEIARRFEEQA | soluble
MHIKYDQAMDDETKVEAILYATRNPLSVRSISLILGIEAGAISRIIKKLRLEYKKRNTSLEIAKIGNKYRIQLKKEYYDFAYRVMEPELSKYETGFLATVALNEGASLSFFRKRYGSRTDDMISKLKTMSLIRTSKKGNGTAIYLGENFEKVFGITKKELLERATEYDRQN | soluble
MHILVVSVNYRTAPVEFREKLTFQAAELERAMTTLQNQKSVLENVIVSTCNRTEIYAVVDQLHTGRYYIKKFLADWFQLEIEEVAPYLTIFEQDGAIDHLFRVTCGLDSMVVGETQILGQIKDSFLEAQQVKATGTIFNELFKQVITLAKRAHSETTIGESAMSVSYAAVELGKKIFGELTDCHVLILGAGKMGELALQNLYGSGARKVTVMNRTLSKAEIMAEKYMGHAKPLSELQCALLEADILISSTGASDYVITKEMMTKVEKMRSGRPLFMVDIAVPRDIDPAIDELEGSFLYDIDDLQGVVEANRAERLKEAEKIQFMIEEEIVLFKTWLSTLGVVPLISALRDKALAIQSETMESLERKIPNLSDRERKVISKHTKSIINQLLKDPILVAKEIAAEEGADEKLALFAKIFDLEMEDVESRAEEVEHKRVWTPSVPSL | not soluble
MHKDIKLVKETEIRKPIGSPFIVYFSSISNNTHRFIEKLGFQHKRIPVDITQSITVSNEYVLICPTYSGGGNQVEGAVPKQVIQFLNNKHNRELCRGVIASGNTNFGDTFCLAGTVISKKLNVPLLYQFELLGTKNDVEQTQKIIANFFQNSN | soluble
MHKPCVIIPVFDHELAVPDVVKAVRAAGLPCVLVDDASSPACAAVLRQLAQGDEIYLVCLPVNQGKGGAVMAGFREAARLGFSHALQVDADGQHDLSDIPVFLEQSRQCPEALICGYPQYDESVPKGRLYARYLTHVWVWINTLSLQIRDSMCGFRLYPLAPVLVLIDAVRIGKRMDFDSEILVRLAWRGQAMRWLPTRVHYPQDGLSHFRLFHDNALISTMHAKLFFGMLMRLPLILWRRWRSLEHHHHHH | not soluble
MHKRFAALAAPLLYLACASAQADTMRCGSALVSVGDRAFEVQQKCGDPDHRDDVGYTLGSYDRREFKVEEWVYGPRNGVTYILTFEANKLKRIEFKR | not soluble
MHLLRTQPGGFVPDDGIAHLAQTPAELVILCSGDSHLALLAEAARALPDDYPSLRLANPMQLQNHASVDLYVEEVLRHARVILLSLHGGIGYWRYGVEQLVALAERGALLIPVPGDDRPDPELSALGNLPAEQAERFWQYLRQGGLENAGQFYRCLASQCLGRDYAWREPQALPRVALFHPRHAEATLEHWRADWQAGRPVVALLFYRTHLQAANTAFIARFCERLAAQGLNPLPIALASLKESACLAQVEDWLERSDAALIVNTTGFAQSNPEAPELRPFRRDVPVLQAICSLDNRPLWLDNPQGLGPRDLAMHVALPELDGRIVTRPISFKGLAWRSERSESDVVCYLADDERMDFVAELARRWAELARKPNAEKRVALVLANYPTRDGRIGNGVGLDTPAAALNILRALRQQGYPVDGLPASGTELIRQLLGGVSNDLEHLDLRPCAQSLALDDYLACFARLPERNRQAVLARWGEPQQDPMFRDGRMMVAGLRYGLTFVGIQPARGYQLDPAAVYHDPDLVPPHGYLAFYFWLRHAYRADALLHVGKHGNLEWLPGKGVGLSAECWPDALLGPLPNIYPFIVNDPGEGAQAKRRTQAVIIDHLMPPLTRAESYGPLRDLERLADEFYDASLLDPRRAEQLRGEILVLLRDNRLDREIGLQLSDDPDSWLPQLDAYLCDLKESQIRDGLHVFGESPSGRLRLDTLLALLRVPRGDGKGANAGLLKSLADDLGLGFDPLACDMGEAWQGARPACLEERGGEPWRTLGDTRERLELLALHWIERCLGGESPPATWRASGEVLRGLCEQVAPTLDACGGAEIDGLLAALEGRFVPAGPSGAPSRGRLDVLPTGRNFFSVDVRNLPTPTAWRIGFQSANLLLERHLQEHGDHLRQLGLSVWGTATMRTGGDDIAQALALLGVRPVWQAGSQRVADFEILPVSLLDRPRVDVTLRVSGFFRDAFANLIRLFDAAVQAVAELDEAEELNPLAARVRLERQRLEAQGTAPAEARRQAGWRIFGAKPGAYGAGVQGAIEERLWETRADLAEVYLNWGGYAYGAADDGTPARERFAQRLERLQAVLHNQDNREHDLLDSNDYYQFQGGMLAAVETLRGAPVASYHGDHSQPDNPRIRTLKEELNRVVRARAVNPKWIAGMKRHGYKGAFELAATVDYLCAFDATSELIDDHQYALLADAYLLDAETREFVRQHNPQALRDMAERLVEAQRRGLWQEPGAYREALENL | not soluble
MHLPPKLALTTGVLLVALPLATPAWGQPPTPASPLVQQLNNGNWLDPKEAETLRDELYYQRAIHAYMTMLPALNVIGMRDGSEKVFGAGYNVLPVWKERMDARTMVPTPNADVIYSMSYLDLKKTGPLVVKAPANVIGMFTDFFQRTLTDVGAIGPDRARGGLYLILPPDYDGHVPSSYFVVKSPTYNVFLFFRTIMGQGKGKPDPAPAVKAAETTRVYPLWAEEKDIKPMEFPDGSGKHINMMYPVDQEYWTKLKEFVDYEPVSAIDPELRGVLASIGIVKGQPFKPTAREQELLKRAVETAPKMILAMRQLGREDKRHLYYKDRQWERAWAGATAEWMQDSYLDVNQRATFFQIAYSSAPAMVMRTTGAGSKYPFTARDANGEFLNGSATYKLRMPPDAPAALFWAVTAYNVTDGTMPETDQLMPSTNGYYDIPKQKDGSTEIWFGPQKPADVADAAFIKTIPNRNFLVTLRLYGAEDAFYDQTWKPDDVVKVKLEHHHHHH | not soluble
MHNQTVRATVFKANAAAPQTKQIYEDDFSELYGEDIIAPPYNIIELKTIAEYSTILQQCIDAYRVNITGFGFDVEYTFDVNASDVDQAKKKRAEKDWARLEAFYKCLHFDESAEMILGYAIEDREKTGNGFMEVLRDGAGKPAGIEYLDVKYMRVCGAGEPVEVSFVYEENGKMKRIKRQKRFRKYVQMINGKKVFFKEYGDPRKMDIRTGEYVNTLAEKYQANEAIHLKIGSGVYGVPRWIGNIVNLYGARKAEELNFMYFKQGRHVPAAITVENGMLSEASYRELQEYMNDLESVENAHKFLLIEAEGIAKEKDLHGGEDITPVSVEIKSLAEILQNDALFLEYDEKSRNKLRSAFRLPPLYTGEAQEYNRATADTARKITEEQVFQPERKTLVNKLNTLLLPELNIHDVRLTLKGPDFRDPLEIAKVLGPFITAGAVSPNDLRDLAGRVLGKTLEEWPEDIYKRPAGQDAEKTNLAALMQELKESIEDIKTS | not soluble
MHPKRTPGTCFPGRGRPAPPRISVTVPEEVSQQEDLLVARSSELGGNSNTAVALTFNHALTAVRFVCGNDMREGTVKQVRLKNVYSRGTYNMGTQTWSGLDTPASFSQALDKVTTGTADEALTSEAQTFMMLPQRFPEGAQIEVLFTDDTHTGHTLIADIKGSEWPMGKTVTYKISSSSLNWTYTLDVTALADFTYTGGTQQYCVTSYRQNAQGEKEAAEWTAQYAEDGTTWTDTKPVWLTAFTASGTGGEFAQPCDATVEAQTGISNDLHENALKAATAKGSETTPYNLSNNTGGNTVENTANCYVVNAPGYYSLPLVYGNAIKNSATNASAYTSTVTGTNILNPFINHAGNGITDPYISGNGCTPAKAELVWQDAMNLVTDIKYNADSNGGNISFKVDRSSIRQGNAVIAIKDVSDAILWSWHVWVTDEDINNVIEITNHQNVKYNFMPVNLGQCDGNTITYEERSCKVKFIAGDQSKEITIKQLANVIATGSNAPFYQWGRKDPLYPSNGMGNTTKIWYDKEGIPSTANPMKGTFSAGNDCIKNCILNPNLMHNRYNGDYTYYNLWSADNKTTSANDNPVNKTIYDPCPVGFKLPASNAFTGFTTTGESVSSSTQVNGTWSSSEKGWYFYTNSEKTQSIFFPALGYRSYSTMRPGSIGTQGCFWSAHPVAKGNNYYLRTSSVDVQPTYMVDRGFGYALRPCQD | not soluble
MHRRSIINHSRPDKLKRGMHVEIASNVINDLQFFDQQIRWAKADLVQQVSRNRLNRARTYRGYLNQCLPHELVADIQRAVIKSINAISLINLEHHHHHH | not soluble
MHYCDLDIAECDGVYPPSEDSFLIIEYASCSGKAIEIGCGTGIVSICFLKRGCDIEAVDISDLAVECAKDNASRNGLTLKVYRSDLFSGVSGTYDTILFNAPYIPVEGEDASWSGGRNLEVVSRFLGQAREHLSASGQIYIVLSDLTDNEGMFRMMGYDYFIIKKISFEFEAIVLYKLTLKALEHHHHHH | soluble
MIDHALALTHIDERGAARMVDVSEKPVTLRVAKASGLVIMKPSTLRMISDGAAAKGDVMAAARIAGIAAAKRTGDLIPLCHPLGLDAVSVTITPCEPDRVKILATTTTLGRTGVEMEALTAVSVAALTIYDMCKAVDRAMEISQIVLQEKSGGRSGVYRRSASDLACQSR | soluble
MIDIHNHILVDIDDGPKTIEKSIALLKQAKDEGVTSIVATPHHLHPRYDNTFQQVLVKLAELRTHPEVQALDIKLFPGQEIRITDSILKGLDNGSIQGINRSKYLLIEFPTGEVPHYTKQLFFEIQSRGYIPIIAHPERNRSIAKNPEILYELVANGALSQLTSSSLVGGFGKNIQKLSLQFIECNLAHFVASDAHSCDQRPFLMQELFHNHKLKKYSNDIEALLRNASSVINDNFVYLDRPTKPGKVKSFLKWF | not soluble
MIDKKTYNEIGVHIPSILLPKEGIDMQKWSVVACDQYTSEPEYWEEVEKKVGDNPSTLHLIFPEIYLEHGNADERIKRINNEMKRYINEGILVSQKPCMLLVDRSTPHTKSRKGLILAVDLEKYDYSAGSQTLIRATEGTVIERLPPRVKIRENAILELPHVMLLIDDPDKTVIEPLAGKLDSFEKVYDFELMMNGGHIRGYRIDDGETLKGILKAIEALADPEVFKSKYKVGDDKGVLLFAVGDGNHSLASAKVHWENVKKSLSEAEVEDHPARFALVEVVNVHDDGIVFEPIHRVLFNIEPESVLNALQDFFGSSCCSLEKFDSLESVNKRLSELKREEAVHSFGFVTDRSFGVFTVQNLKHNLEVATLQGFLDYYLGKQKEAKVDYIHGEDVVTKLGSKPGNIGFYLPSMEKHDLFKTVILDGVLPRKTFSMGEAEEKRFYLECRKIVKD | soluble
MIEFSENSHRKSLIEELPRIVERGEKEAQKILDGLSKSQRITLQTNELVLPTKAIGELNKFYGQTIKTENNNEFLNRLIYGDNLLAMQAFLAGDPETGLPSMRGKIDLIYIDPPFDSKANYRTKIHLPTADVEQMPSVIEQFAYSDTWKDGTKSYLEMIVPRLVLMKELLSEKGSIYVHIDWHVGHYVKVIMDEIFGRENFVNEIVWKKTNSPKAQSKGFGTQHDVLYIYRKTPQFIFNQIKKEPDEDYLKSYVYDDNDGRGPYQTVALVAGGIQRSENRKIFEFHGVRAPWLYSLENLERFWSDGRIFKTKTGYRLKVYLKDIALRLYLIYGLTRK | not soluble
